In this experiment the test system is LFA-1 (αLβ2). The experiment is described as follows: Steady-state in-solution FRET binding assay (Alexa Fluor 488-LFA-1 donor / Alexa Fluor 555-D1-D2-Fc acceptor) to determine Kd. On the set-up: species or system human. The protocol: In determining the equilibrium dissociation constant (Kd) between the interacting protein pairs, LFA-1 and D1-D2-Fc, from the FRET binding assay, several concentrations of the acceptor conjugate, Alexa Fluor 555-D1-D2-Fc, were added to a fixed concentration of the donor conjugate, Alexa Fluor 488-LFA-1. The donor conjugate concentration was kept constant at 100 nM while the acceptor conjugate concentration was varied from 0 upto 1.6 µM. These FRET mixtures, with different donor-to-acceptor ratios, were excited by 470 and 530 nm. […] The peak intensity at 570 nm has contributions from unquenched donor emissions, direct acceptor emission and the emission of acceptor due to FRET (FFRET). However, when the FRET mixture was excited with 530 nm, only a single peak corresponding to the direct emission of the acceptor (FA) was observed.
Thus, to obtain the absolute maximum FRET emission signal at 570 nm (FFRETmax), we need to quantify each contribution from the donor and acceptor emissions as well as the FRET emission signal (FFRET). […]
In general, the direct emission of Alexa Fluor 488-LFA-1 at 570 nm is expected to be proportional to its emission at 520 nm when excited at 470 nm. […] The calculated value of “b” was 0.101±0.008. […]

From article PMC4102529, “FRET Based Quantification and Screening Technology Platform for the Interactions of Leukocyte Function-Associated Antigen-1 (LFA-1) with InterCellular Adhesion Molecule-1 (ICAM-1)” (PLoS ONE, 2014) come the findings set out here.

B1: D1-D2-Fc: chimeric molecule consisting of the amino-terminal first two Ig domains of human ICAM-1 (D1-D2) fused to IgG1 Fc region (protein)
chain: QTSVSPSKVILPRGGSVLVTCSTSCDQPKLLGIETPLPKKELLLPGNNRKVYELSNVQEDSQPMCYSNCPDGQSTAKTFLTVYWTPERVELAPLPSWQPVGKNLTLRCQVEGGAPRANLTVVLLRGEKELKREPAVGEPAEVTTTVLVRRDHHGANFSCRTELDLRPQGLELFENTSAPYQLQTFVLPATPPQLVSPRVLEVDTQGTVVCSLDGLFPVSEAQVHLALGDQRLNPTVTYGNDSFSAKASVSVTAEDEGTQRLTCAVILGNQSQETLQTVTIYSFPAPNVILTKPEVSEGTEVTVKCEAHPRAKVTLNGVPAQPLGPRAQLLLKATPEDNGRSFSCSATLEVAGQLIHKNQTRELRVLYGPRLDERDCPGNWTWPENSQQTPMCQAWGNPLPELKCLKDGTFPLPIGESVTVTRDLEGTYLCRARSTQGEVTRKVTVNVLSPRYEIVIITVVAAAVIMGTAGLSTYLYNRQRKIKKYRLQQAQKGTPMKPNTQATPP
modifications: Alexa Fluor 555 (succinimidyl ester) on amine groups (amine terminus, ε-amino groups of lysines), random; F/P molar ratio 3.14±0.27; left off: Fc (IgG1), end not stated, kept
notes: chimeric molecule consisting of the amino-terminal first two Ig domains of human ICAM-1 (D1-D2) fused to IgG1 Fc region
B1: for the setting “at 570 nm, 100 nM Alexa Fluor 488-LFA-1, Alexa Fluor 555-D1-D2-Fc 0 to 1.6 µM, fit of Eq. (6), adj. R-square = 0.9895”, the “maximum FRET emission signal (FFRETmax)” value is recorded as 6.33×10^3 RFU. The Kd (steady-state FRET, 100 nM Alexa Fluor 488-LFA-1 fixed, Alexa Fluor 555-D1-D2-Fc 0 to 1.6 µM, PBS, pH 7.4, 1 mM EGTA, 2 mM Mg^2+, 50 µl, 96-well plate, excitation 470 nm, emission 520/570 nm, nonlinear fit Eq. (6), one-to-one, data points mean (rms) of 9 measurements, 3 samples, read-out: dissociation constant (Kd) of the LFA-1/D1-D2-Fc interaction) turned out to be 17.9 ± 1.34 nM.
